Data on five substances can be found in PMC5916898.

For one data set, the target named is SMARCA5 (human (HeLa)) (UniProt O60264). The data set is described as follows: pull-down TMT-MS titration. To be noted: apparent, Pull-down: 150 mM NaCl (or LiCl), 50 mM Tris pH 8, 0.25% NP-40, 1 mM TCEP, protease inhibitors, 4 C, 2 h, EMSA with lysate in same buffer, RT 15 min, FP in …. A general note: A gel shift assay detects complexes by their altered migration in electrophoresis.

For the next data set, the target named is SMARCA4 (human (HeLa)) (UniProt P51532). The data set is described as follows: pull-down TMT-MS titration. To be noted: apparent, Pull-down: 150 mM NaCl (or LiCl), 50 mM Tris pH 8, 0.25% NP-40, 1 mM TCEP, protease inhibitors, 4 C, 2 h, EMSA with lysate in same buffer, RT 15 min, FP in ….
The next data set has as its system SMARCA2 (human (HeLa)). The data set is described as follows: pull-down TMT-MS titration. The conditions noted are these: apparent, Pull-down: 150 mM NaCl (or LiCl), 50 mM Tris pH 8, 0.25% NP-40, 1 mM TCEP, protease inhibitors, 4 C, 2 h, EMSA with lysate in same buffer, RT 15 min, FP in ….
A further data set has as its system BAZ1B (human (HeLa)). The data set is described as follows: pull-down TMT-MS titration. The conditions noted are these: apparent, Pull-down: 150 mM NaCl (or LiCl), 50 mM Tris pH 8, 0.25% NP-40, 1 mM TCEP, protease inhibitors, 4 C, 2 h, EMSA with lysate in same buffer, RT 15 min, FP in ….
In the next data set the test system is BPTF (human (HeLa)). The data set is described as follows: pull-down TMT-MS titration. To be noted: apparent, Pull-down: 150 mM NaCl (or LiCl), 50 mM Tris pH 8, 0.25% NP-40, 1 mM TCEP, protease inhibitors, 4 C, 2 h, EMSA with lysate in same buffer, RT 15 min, FP in ….
The next data set deals with BAZ1A (human (HeLa)). As to the kind of experiment: pull-down TMT-MS titration. To be noted: apparent, Pull-down: 150 mM NaCl (or LiCl), 50 mM Tris pH 8, 0.25% NP-40, 1 mM TCEP, protease inhibitors, 4 C, 2 h, EMSA with lysate in same buffer, RT 15 min, FP in ….
In data set [1] the target is GST-KLF4-ZF (UniProt O43474). The data set is described as follows: fluorescence polarization. To be noted: Pull-down: 150 mM NaCl (or LiCl), 50 mM Tris pH 8, 0.25% NP-40, 1 mM TCEP, protease inhibitors, 4 C, 2 h; EMSA with lysate in same buffer, RT 15 min; FP in …. (In general: In fluorescence polarisation assays a small probe gives low polarisation when free and higher when bound to something large.)

The target of data set [2] is GST-KLF4-ZF (UniProt O43474). The data set is described as follows: fluorescence intensity (de-quenching). The conditions noted are these: Pull-down: 150 mM NaCl (or LiCl), 50 mM Tris pH 8, 0.25% NP-40, 1 mM TCEP, protease inhibitors, 4 C, 2 h; EMSA with lysate in same buffer, RT 15 min; FP in ….
The target of data set [3] is H3K9AcK14Ac modified di-nucleosome (human) (UniProt P68431). As to the kind of experiment: affinity purification with mass spectrometry; titration series of ten concentrations of biotinylated recombinant di-nucleosome on streptavidin beads; 100 ug HeLa nuclear lysate per pulldown in PBB (150 mM NaCl, 50 mM Tris pH 8, 0.25% NP-40, 1 mM TCEP), 2 h at 4 °C; 10-plex TMT, SPS-MS3; apparent Kd from a Hill-like fit, triplicate, r^2 > 0.9.

The test system of the next data set is PHF10 (human (HeLa)). The data set is described as follows: pull-down TMT-MS titration. To be noted: apparent; histone H3K9ac K14ac; Pull-down: 150 mM NaCl (or LiCl), 50 mM Tris pH 8, 0.25% NP-40, 1 mM TCEP, protease inhibitors, 4 C, 2 h; EMSA with lysate in same buffer, RT 15 min; FP in ….
The next data set relates to C17orf49 (human (HeLa)). As to the kind of experiment: pull-down TMT-MS titration. To be noted: apparent; histone H3K4me3; Pull-down: 150 mM NaCl (or LiCl), 50 mM Tris pH 8, 0.25% NP-40, 1 mM TCEP, protease inhibitors, 4 C, 2 h; EMSA with lysate in same buffer, RT 15 min; FP in ….

SMARCA4 (human (HeLa)), sequence (P51532 whole entry): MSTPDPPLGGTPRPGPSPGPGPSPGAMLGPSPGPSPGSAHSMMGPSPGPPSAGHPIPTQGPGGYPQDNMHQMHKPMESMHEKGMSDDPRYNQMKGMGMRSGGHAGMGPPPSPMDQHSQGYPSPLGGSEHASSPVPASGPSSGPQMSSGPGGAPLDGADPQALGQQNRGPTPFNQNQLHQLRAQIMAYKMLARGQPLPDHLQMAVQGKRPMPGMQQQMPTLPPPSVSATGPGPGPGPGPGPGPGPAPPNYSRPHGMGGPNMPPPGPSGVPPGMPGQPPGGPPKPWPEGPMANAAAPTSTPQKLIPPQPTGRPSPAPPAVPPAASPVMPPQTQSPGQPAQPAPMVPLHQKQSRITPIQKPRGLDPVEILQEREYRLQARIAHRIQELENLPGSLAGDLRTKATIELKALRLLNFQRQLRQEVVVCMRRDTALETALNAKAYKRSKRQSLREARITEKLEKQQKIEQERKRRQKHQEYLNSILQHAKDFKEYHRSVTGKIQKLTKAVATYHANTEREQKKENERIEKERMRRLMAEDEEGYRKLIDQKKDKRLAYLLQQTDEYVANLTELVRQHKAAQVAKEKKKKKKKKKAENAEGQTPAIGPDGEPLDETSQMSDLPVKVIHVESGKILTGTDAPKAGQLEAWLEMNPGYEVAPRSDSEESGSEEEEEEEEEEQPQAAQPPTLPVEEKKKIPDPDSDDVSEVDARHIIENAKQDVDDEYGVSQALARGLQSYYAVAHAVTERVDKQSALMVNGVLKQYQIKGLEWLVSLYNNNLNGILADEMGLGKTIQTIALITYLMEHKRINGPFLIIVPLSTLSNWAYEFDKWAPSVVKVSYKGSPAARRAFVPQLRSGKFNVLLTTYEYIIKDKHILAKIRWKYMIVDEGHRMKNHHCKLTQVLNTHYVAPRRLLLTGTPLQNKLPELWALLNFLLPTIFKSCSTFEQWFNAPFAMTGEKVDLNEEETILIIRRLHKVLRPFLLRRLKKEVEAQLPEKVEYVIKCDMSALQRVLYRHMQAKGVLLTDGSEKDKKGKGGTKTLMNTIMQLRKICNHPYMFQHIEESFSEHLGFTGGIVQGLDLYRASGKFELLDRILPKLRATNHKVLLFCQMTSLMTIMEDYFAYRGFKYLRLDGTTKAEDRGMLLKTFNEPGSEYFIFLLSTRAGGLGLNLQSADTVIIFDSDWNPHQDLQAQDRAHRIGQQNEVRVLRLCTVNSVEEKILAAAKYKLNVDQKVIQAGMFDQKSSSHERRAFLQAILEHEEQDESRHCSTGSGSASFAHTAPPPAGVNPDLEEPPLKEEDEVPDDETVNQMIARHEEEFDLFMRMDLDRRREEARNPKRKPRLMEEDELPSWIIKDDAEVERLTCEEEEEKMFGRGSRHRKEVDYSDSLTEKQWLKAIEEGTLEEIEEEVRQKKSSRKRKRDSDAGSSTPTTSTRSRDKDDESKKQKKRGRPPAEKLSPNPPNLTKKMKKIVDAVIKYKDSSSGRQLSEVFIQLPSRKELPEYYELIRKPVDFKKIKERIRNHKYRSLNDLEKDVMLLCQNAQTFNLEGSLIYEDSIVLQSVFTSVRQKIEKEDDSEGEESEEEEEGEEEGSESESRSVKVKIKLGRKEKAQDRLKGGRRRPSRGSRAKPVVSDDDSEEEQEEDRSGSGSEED
SMARCA5 (human (HeLa)), sequence (O60264 2-1052): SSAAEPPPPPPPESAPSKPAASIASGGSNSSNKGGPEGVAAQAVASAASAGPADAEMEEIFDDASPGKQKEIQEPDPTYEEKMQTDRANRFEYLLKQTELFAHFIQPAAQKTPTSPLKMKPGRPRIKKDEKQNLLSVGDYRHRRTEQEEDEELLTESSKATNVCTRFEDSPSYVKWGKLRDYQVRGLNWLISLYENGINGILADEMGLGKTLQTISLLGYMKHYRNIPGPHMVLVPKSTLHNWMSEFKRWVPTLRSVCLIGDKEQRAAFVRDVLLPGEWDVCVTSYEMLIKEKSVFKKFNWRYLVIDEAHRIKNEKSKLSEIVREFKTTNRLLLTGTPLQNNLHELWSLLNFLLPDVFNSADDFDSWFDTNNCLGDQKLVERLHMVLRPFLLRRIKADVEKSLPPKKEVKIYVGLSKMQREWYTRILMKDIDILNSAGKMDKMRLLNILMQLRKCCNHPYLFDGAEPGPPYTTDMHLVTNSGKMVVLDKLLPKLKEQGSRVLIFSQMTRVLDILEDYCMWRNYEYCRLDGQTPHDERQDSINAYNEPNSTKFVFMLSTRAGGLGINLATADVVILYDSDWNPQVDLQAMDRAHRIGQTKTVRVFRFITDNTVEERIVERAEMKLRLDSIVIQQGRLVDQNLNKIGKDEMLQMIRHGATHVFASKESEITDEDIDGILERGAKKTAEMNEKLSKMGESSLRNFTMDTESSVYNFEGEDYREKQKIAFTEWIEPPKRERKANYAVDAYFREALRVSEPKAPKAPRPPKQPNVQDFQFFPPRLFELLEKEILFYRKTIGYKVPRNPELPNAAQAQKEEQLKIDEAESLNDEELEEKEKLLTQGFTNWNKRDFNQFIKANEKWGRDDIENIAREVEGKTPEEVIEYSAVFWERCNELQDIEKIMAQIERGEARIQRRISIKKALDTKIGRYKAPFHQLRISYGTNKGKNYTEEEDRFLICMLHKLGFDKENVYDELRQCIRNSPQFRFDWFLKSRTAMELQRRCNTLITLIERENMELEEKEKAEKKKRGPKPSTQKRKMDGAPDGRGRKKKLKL
GST-KLF4-ZF, sequence (O43474 whole entry): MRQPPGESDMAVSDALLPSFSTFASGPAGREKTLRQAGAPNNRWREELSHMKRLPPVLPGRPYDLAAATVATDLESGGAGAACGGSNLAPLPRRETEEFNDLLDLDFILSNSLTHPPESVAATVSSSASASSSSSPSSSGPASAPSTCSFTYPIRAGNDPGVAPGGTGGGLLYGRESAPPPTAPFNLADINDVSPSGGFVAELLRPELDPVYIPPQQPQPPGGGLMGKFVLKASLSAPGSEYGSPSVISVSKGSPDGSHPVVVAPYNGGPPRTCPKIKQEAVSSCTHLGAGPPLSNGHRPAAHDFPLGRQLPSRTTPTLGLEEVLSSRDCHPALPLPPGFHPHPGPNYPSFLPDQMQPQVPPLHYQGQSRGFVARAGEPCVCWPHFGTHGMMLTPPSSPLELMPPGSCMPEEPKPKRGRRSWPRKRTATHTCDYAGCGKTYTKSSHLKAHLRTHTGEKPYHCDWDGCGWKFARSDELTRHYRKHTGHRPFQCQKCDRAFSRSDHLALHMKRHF
PHF10, sequence (Q8WUB8 whole entry): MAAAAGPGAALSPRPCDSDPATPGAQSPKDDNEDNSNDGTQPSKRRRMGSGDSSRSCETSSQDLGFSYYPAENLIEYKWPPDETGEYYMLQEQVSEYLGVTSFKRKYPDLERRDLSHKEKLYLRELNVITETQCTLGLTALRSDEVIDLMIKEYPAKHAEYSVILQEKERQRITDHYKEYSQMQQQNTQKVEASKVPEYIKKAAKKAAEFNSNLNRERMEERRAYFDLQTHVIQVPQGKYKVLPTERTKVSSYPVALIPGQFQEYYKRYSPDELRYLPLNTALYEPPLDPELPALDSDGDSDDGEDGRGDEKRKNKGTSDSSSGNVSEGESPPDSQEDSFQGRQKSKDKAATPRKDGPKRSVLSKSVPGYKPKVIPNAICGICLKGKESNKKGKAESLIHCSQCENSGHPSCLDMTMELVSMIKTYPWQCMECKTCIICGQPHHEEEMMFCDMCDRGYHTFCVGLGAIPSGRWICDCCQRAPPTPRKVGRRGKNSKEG

On to unmodified H3 di-nucleosome, for which the Kd amounted to 102 nM in the data set with SMARCA5 (human (HeLa)); 174 nM in the data set with SMARCA4 (human (HeLa)); 162 nM in the data set with SMARCA2 (human (HeLa)); 122 nM with BAZ1B (human (HeLa)); 53.2 nM in the data set on BPTF (human (HeLa)); 151 nM in the data set with BAZ1A (human (HeLa)).
Turning to “GAGAGCCCCGCCCCCTGGCT (double strand) [SP/KLF wild-type Cy5]”, the results for the Kd with GST-KLF4-ZF [1] and with GST-KLF4-ZF [2] were 21.8 nM and 20.2 nM, respectively.
As for “PHF10 (from UniProt Q8WUB8 1-498) (natural protein)”, in [3], the Kd amounted to 35 nM.
Regarding H3K9AcK14Ac di-nucleosome, the Kd in the data set with SMARCA5 (human (HeLa)) (histone H3K9ac K14ac) worked out at 52.6 nM; with SMARCA4 (human (HeLa)) (histone H3K9ac K14ac), 68.7 nM; in the data set on PHF10 (human (HeLa)) it was 35 nM; in the data set with SMARCA2 (human (HeLa)) (histone H3K9ac K14ac) it was 35.9 nM; with BAZ1B (human (HeLa)) (histone H3K9ac K14ac), 15 nM; in the data set on BPTF (human (HeLa)) (histone H3K9ac K14ac), 27.9 nM. In the data set on BAZ1A (human (HeLa)) (histone H3K9ac K14ac), the Kd amounted to 114 nM.
H3K4me3 di-nucleosome: the Kd with SMARCA5 (human (HeLa)) (histone H3K4me3) was determined as 82.4 nM; with SMARCA4 (human (HeLa)) (histone H3K4me3) it was 123 nM; in the data set on SMARCA2 (human (HeLa)) (histone H3K4me3), 51.8 nM; in the data set on BAZ1B (human (HeLa)) (histone H3K4me3) it was 90.6 nM; in the data set with BPTF (human (HeLa)) (histone H3K4me3), 54 nM; in the data set with C17orf49 (human (HeLa)) it was 68.7 nM. In the data set with BAZ1A (human (HeLa)) (histone H3K4me3), the Kd came out at 100 nM.
